Laboratory results: paper PMC10475850

Assays:
[1] = molecular target: Csp1 (cysteine-rich helical bundle copper-storage protein); experiment: SEC; analytical size exclusion of the purified protein (Figure S8); conditions not given
[2] = molecular target: Recombinant Human EGF (human)
[3] = molecular target: Recombinant Human EGF (human); experiment: SPR; Biacore X100, multi-cycle kinetics; EGF amine-coupled to CM5 chip (100 μg/mL, acetate pH 4.0); binders injected at five concentrations (nanomolar range) 120 s, 180 s dissociation; PBS with 0.05% Tween-20, 25°C, 10 μL/min; global fit
[4] = molecular target: Recombinant Human HB-EGF (human); experiment: SPR; Biacore X100, multi-cycle kinetics; HB-EGF amine-coupled to CM5 chip (20 μg/mL, acetate pH 5.0); binders injected at five concentrations (nanomolar range) 180 s, 180 s dissociation; PBS with 0.05% Tween-20, 25°C, 10 μL/min; global fit
[5] = molecular target: Recombinant Human TGF-alpha (human); experiment: SPR; Biacore X100, multi-cycle kinetics; TGF-α amine-coupled to CM5 chip (100 μg/mL, acetate pH 4.5); binders injected at five concentrations (nanomolar to low micromolar range) 60 s, 60 s dissociation; PBS with 0.05% Tween-20, 25°C, 10 μL/min; global fit

stoichiometry N [1]	IC50 of inhibition of proliferation of A431 cells stimulated with 400 pM EGF (EGF acting on EGFR), d3-WT at 0.032-500 nM, 72 h [2]	Kd [3]	koff [3]	kon [3]	Kd [4]	koff [4]	kon [4]	Kd [5]	koff [5]	kon [5]	Substance
4	–	–	–	–	–	–	–	–	–	–	Csp1 (cysteine-rich helical bundle copper-storage protein) (natural protein)
–	476 nM	0.056 µM	0.0028 s⁻¹	49700 M⁻¹ s⁻¹	0.37 µM	0.0107 s⁻¹	47200 M⁻¹ s⁻¹	2.55 µM	0.0577 s⁻¹	38400 M⁻¹ s⁻¹	human EGFR domain 3 (d3-WT) (domain or fragment)
